US20110059076A1, “HUMAN SERUM ALBUMIN LINKERS AND CONJUGATES THEREOF” (priority 2008, published 2011)
Values joined by “and” are separate entries in the source; they are usually repeats but may differ in a detail not shown here. Equal entries are not always repeated. “Also recorded” adds a separate entry of the source.

How the values were obtained:
BT474 breast tumor cells = assay: cell cycle analysis by propidium iodide flow cytometry; assay type: cell-based; conditions: 72 hours treatment
Description: After the end of treatment, cells are trypsinized, gently resuspended in hypotonic solution containing propidium iodide and single cells are analyzed by flow cytometry. Cell cycle distribution in G1 and S phases is measured using curve-fitting algorithms designed for cell cycle analysis (FlowJo software cell cycle platform).
After the end of treatment, cells are trypsinized, gently resuspended in hypotonic solution containing propidium iodide and single cells are analyzed by flow cytometry. Cell cycle distribution in G1 and S phases is measured using curve-fitting algorithms designed for cell cycle analysis (FlowJo software cell cycle platform, Tree Star, Inc.). […] In a second experiment, the number of cell colonies formed following treatment with B2B3-1 is studied. […] Media only or media including treatment is replenished every 3 days. After 14 days the number of colonies is counted and compared to untreated cells.

[1] = target: T1, ErbB2-associated complexes in BT474 breast cancer cells (Homo sapiens, UniProt P04626+P21860); assay: immunoprecipitation-Western blot of ErbB2-associated complexes; assay type: cell-based; conditions: BT474, dose range 24 hours, heregulin stimulation
T1 construct: endogenous in cells; host or cells: BT474 breast cancer cells
Description: ErbB2-associated complexes are isolated from cell lysates using an anti-ErbB2 antibody followed by Western blot analysis to detect pErbB2 and pErbB3 and the corresponding total protein levels.

BT-474 cells = assay: cell impedance proliferation assay (RT-CES); assay type: cell-based; conditions: calculated 68 hours after treatment, read-out: IC50 of inhibition of cell impedance
[2] = system: SKOV-3 (human ovarian adenocarcinoma) xenograft; assay: SKOV-3 xenograft model; assay type: in vivo, mice; conditions: SKOV-3, 30 mg/kg every 3 days
Description: (§1) Calu-3 (human lung adenocarcinoma; FIG. 17A), SKOV-3 (human ovarian adenocarcinoma; FIG. 17B), NCI-N87 (human gastric carcinoma; FIG. 17C), ACHN (human kidney adenocarcinoma; FIG. 17D), and MDA-MB-361 (human breast adenocarcinoma; FIG. 17E) xenograft model are shown.

[3] = system: NCI-N87 (human gastric carcinoma) xenograft; assay: NCI-N87 xenograft model; assay type: in vivo, mice; conditions: NCI-N87, 30 mg/kg every 3 days
Description: as §1

[4] = system: p27^kip1 in BT474-M3 breast tumor cells; assay: p27kip1 sub-cellular location by immunofluorescence; assay type: cell-based; conditions: 1 μM, 6 hours
Description: The sub-cellular location of p27^kip1 is assessed using immunofluorescence techniques.

[5] = system: Cyclin D1 in BT-474-M3 cells; assay: Cyclin D1 Western blot; assay type: cell-based; conditions: 72 hours
Description: The cytoskeleton protein vinculin is used as a protein loading control in this experiment.

[6] = system: CD31 in BT474-M3 breast cancer xenograft tumors; assay: CD31 staining (vessel density) of xenograft tumors; assay type: in vivo; conditions: 30 mg/kg every 3 days, 4 doses
Description: Tumors are stained for the presence of vascular marker CD31.

[7] = system: phosphorylated ErbB3 in BT-474-M3 xenograft tumors; assay: pErbB3 Western blot of xenograft tumors; assay type: in vivo; conditions: 30 mg/kg every 3 days, 4 doses, harvested 24 hours after final dose
Description: Equal quantities of protein are loaded in each lane and total protein levels are controlled by probing for beta tubulin.

[8] = system: pAKT in BT-474-M3 xenografts that have reduced PTEN activity; assay: pAKT Western blot of PTEN deficient BT-474-M3 xenograft tumors; assay type: in vivo; conditions: 30 mg/kg B2B3-1 every 3 days or 10 mg/kg trastuzumab weekly
Description: Equal quantities of protein are loaded in each lane and total protein levels are controlled by probing for PCNA.

[9] = single dose pharmacokinetics in nu/nu mice; assay type: in vivo; conditions: for AUC / Clearance / T½β: Mouse (single dose)
Description: Blood is collected pre-dose and at 0.5, 4, 8, 24, 48, 72, and 120 hours post dose. Three mice are used for each time point. […] The HSA ELISA utilizes a polyclonal-anti HSA capture antibody and a HRP-conjugated polyclonal anti-HSA detection antibody.

[10] = pharmacokinetics in Cynomolgus monkeys (dose range-finding toxicology study); assay type: in vivo, Cynomolgus monkey
Description: Blood samples for pharmacokinetic analysis are also obtained from a dose range-finding toxicology study in female Cynomolgus monkeys. […] Sampling occurred prior to and 5 minutes after dosing on each dosing day (study days 1, 4, 7 and 10) to provide pre-dose and peak/trough concentrations, and at 1, 2, 4, 8, 24 and 48 hours after the end of the first infusion on day 1 and at 1, 2, 4, 8, 24, 48, 72 and 120 hours after the last infusion on day 10. For recovery animals dosed at 200 mg/kg serum samples are also collected at 168, 336 and 456 hours after the last infusion.
Cynomolgus monkey serum samples are assayed using the ErbB2/ErbB3 ELISA method described previously.

[11] = system: BT-474-M3 xenograft tumors; assay: q7d versus q3d dosing in BT-474-M3 xenografts; assay type: in vivo, athymic nude mice (nu/nu); conditions: intraperitoneal
Description: Mice receive a subcutaneous estrogen-releasing implant in the opposite flank (0.72 mg pellet, 60 day, slow-release, Innovative Research of America, Sarasota, Fla.) 24 h prior to the injection of 20×10^6 human BT-474-M3cells in PBS. […] Tumors are measured twice a week using digital calipers. Tumor volume is calculated using the formula: π/6×(W^2×L), where W is the short diameter and L is the long diameter. […] PBS vehicle is used as a negative control.

[12] = system: pErbB3 and pAKT in BT-474-M3 cells; assay: Western blot of heregulin induced ErbB3 activity in BT-474-M3 cells; assay type: cell-based; conditions: BT-474-M3, 24 hours, 10 nM or 100 nM, with or without 5 nM HRG 1β EGF
Description: Lysates are subjected to immunoblot analysis for ErbB3, pErbB3, AKT, and pAKT.

ErbB3 = ErbB3 (Homo sapiens, UniProt P04626+P21860); assay: inhibition of ligand-induced phosphorylation of ErbB3 (general statement); assay type: cell-based
[13] = Cynomolgus monkey (1st dose), 4 mg/kg
[14] = Cynomolgus monkey (1st dose), 20 mg/kg
[15] = Cynomolgus monkey (1st dose), 200 mg/kg
[16] = Cynomolgus monkey (4th dose), 4 mg/kg
[17] = Cynomolgus monkey (4th dose), 20 mg/kg
[18] = Cynomolgus monkey (4th dose), 200 mg/kg
[19] = Cynomolgus monkey (4th dose), 200 mg/kg, recovery animals

## B2B3-1: bispecific scFv antibody fusion: anti-ErbB3 scFv H3 and anti-ErbB2 scFv B1D2 joined by a modified human serum albumin (HSA) linker
BT474 breast tumor cells
  population of cells in G1 phase: increase; also recorded: G1 arrest
  population of cells in S phase: modestly decrease
[1]
  ErbB3 and phospho-ErbB3 precipitated by the anti-ErbB2 antibody: crosslinks ErbB2 to ErbB3
BT-474 cells
  IC50: 33 nM
[2]
  tumor size reduction: efficacious
[3]
  tumor size reduction: efficacious
[4]
  sub-cellular location of p27^kip1: translocated to the nucleus; also recorded: translocation of cell cycle inhibitor p27^kip1 to the nucleus
[5]
  levels of Cyclin D1 compared to untreated cells: decrease
[6]
  vessel density (CD31) compared to HSA treated tumors: marked decrease in vessel density; also recorded: reduction of vessel density
[7]
  pErbB3 in tumors compared to HSA treated tumors: significantly less pErbB3
[8]
  pAKT in tumors (densitometry of Western blot): significantly less pAKT; also recorded: able to inhibit phosphorylation
[9]; 5 mg/kg IV
  AUC: 1.58E+03 hr-μg/ml
  Clearance: 76.6 mL/day/kg
[9]; 5 mg/kg IV, 5 mg/kg
  T½β: 17 h and 16.9 h
[9]; 15 mg/kg IV
  AUC: 6.10E+03 hr-μg/ml
  Clearance: 59.3 mL/day/kg
[9]; 15 mg/kg IV, 15 mg/kg
  T½β: 16 h and 16.2 h
[9]; 30 mg/kg IV
  AUC: 1.18E+04 hr-μg/ml
  Clearance: 61 mL/day/kg
[9]; 30 mg/kg IV, 30 mg/kg
  T½β: 23 h and 22.6 h
[9]; 45 mg/kg IV
  AUC: 1.84E+04 hr-μg/ml
  Clearance: 59 mL/day/kg
[9]; 45 mg/kg IV, 45 mg/kg
  T½β: 18 h and 17.5 h
[9]; nu/nu mice, 5, 15, 30 and 45 mg/kg bolus doses
  dose-exposure relationship: linear increase in overall exposure
[10]; [13]
  AUC: 3.44E+03 hr-μg/ml
  Clearance: 28.1 mL/day/kg
  T½β: 39.1 h
[10]; [14]
  AUC: 2.29E+04 hr-μg/ml
  Clearance: 21.1 mL/day/kg
  T½β: 33.1 h
[10]; [15]
  AUC: 3.18E+05 hr-μg/ml
  Clearance: 15.4 mL/day/kg
  T½β: 68.8 h
[10]; [16]
  AUC: 7.20E+03 hr-μg/ml
  Clearance: 14.4 mL/day/kg
  T½β: 44.9 h
[10]; [17]
  AUC: 8.20E+04 hr-μg/ml
  Clearance: 6 mL/day/kg
  T½β: 122.5 h
[10]; [18]
  AUC: 5.72E+05 hr-μg/ml
  Clearance: 8.4 mL/day/kg
  T½β: 69.7 h
[10]; [19]
  AUC: 5.99E+05 hr-μg/ml
  Clearance: 8.16 mL/day/kg
  T½β: 66.6 h
[10]; Cynomolgus monkey, day 1, 4, 20 or 200 mg/kg
  Mean half-life estimates: 38.3 to 67.2 h
[11]
  efficacy of q7d dosing (66, 132, 198 mg/kg) versus 30 mg/kg q3d: equivalent efficacy
[12]
  inhibition of pAKT: in a ligand dependent manner
  inhibition of pErbB3: in a ligand dependent manner
ErbB3
  potency of inhibition of ligand-induced phosphorylation of ErbB3: sub-nanomolar
